According to the RNAGym collection of RNA variant scans (doi:10.1101/gr.219683.116):

B1: mRNA-splicing (parent)
chain: AGUUGCUGCUGGGAGCUCCAGCACAGUGAAAUGGACAGAAGGGCAGAGCAA

Variants of: B1
Test: exon inclusion enrichment index; higher = more inclusion; WT1 exon 5 minigene, HEK293

Row | Variant | exon inclusion enrichment index
1 | C6A U7A C9A U10A G15U C16G | 0.298
2 | C6A U7A C9A U10A C19G | 0.576
3 | C6A U7A C9A U10A C19U | 0.0565
4 | C6A U7A C9A U10A C19A | 0.348
5 | C6A U7A C9A U10A C22G A23U | 0.0793
6 | C6A U7A C9A U10A C22G A23C | 0.321
7 | C6A U7A C9A U10A C22G A23G | 0.212
8 | C6A U7A C9A U10A C19U A20U | 0.19
9 | C6A U7A C9A U10A C19U A20G | 0.121
10 | C6A U7A C9A U10A C19U A20C | 0.579
11 | C6A U7A C9A U10A G43C | 1
12 | C6A U7A C9A U10A G43A | 2.02
13 | C6A U7A C9A U10A G43U | 0.644
14 | C6A U7A C9A U10A G26U | 0.794
15 | C6A U7A C9A U10A G26C | 1.1
16 | C6A U7A C9A U10A G26A | 1.08
17 | C6A U7A G8C U10A | 0.371
18 | C6A U7A G8C C9G U10A | 0.781
19 | C6A U7A G8A C9A U10A | 0.207
20 | C6A U7A G8A C9A U10C | 1.36
21 | C6A U7A C9A U10A G34C A35C | 0.0588
22 | C6A U7A C9A U10A G34C A35U | 0.104
23 | C6A U7A C9A U10A G34C A35G | 0.484
24 | C6A U7A C9A U10A C22U A23C | 0.267

Row | Variant | exon inclusion enrichment index
25 | C6A U7A C9A U10A C22U A23G | 0.694
26 | C6A U7A C9A U10A C22U A23U | 0.226
27 | C6A U7A C9A U10A G46C A47C | 0.943
28 | C6A U7A C9A U10A G46C A47G | 1.23
29 | C6A U7A C9A U10A G46C A47U | 0.833
30 | C6A U7A C9A U10A C16A U17C | 0.47
31 | C6A U7A C9A U10A C16A U17A | 0.501
32 | C6A U7A C9A U10A C16A U17G | 0.312
33 | C6A U7A C9A U10A C16G | 0.188
34 | C6A U7A C9A U10A C16U | 0.472
35 | C6A U7A C9A U10A C16A | 0.669
36 | C6A U7A C9A U10A G11A G12A | 1.79
37 | C6A U7A C9A U10A G11A G12C | 2.24
38 | C6A U7A C9A U10A G11A G12U | 1.67
39 | C6A U7A C9A U10A U27A G28U | 0.247
40 | C6A U7A C9A U10A U27A G28A | 0.824
41 | C6A U7A C9A U10A U27A G28C | 0.818
42 | C6A U7A C9A U10G G11U | 1.14
43 | C6A U7A C9A U10G G11C | 1.95
44 | C6A U7A C9A U10G G11A | 1.24
45 | C6A U7A C9A U10A G12C | 2.21
46 | C6A U7A C9A U10A G12A | 1.32
47 | C6A U7A C9A U10A G12U | 0.96
48 | C6A U7A C9A U10A G12C G13C | 1.06

Row | Variant | exon inclusion enrichment index
49 | C6A U7A C9A U10A G12C G13A | 1.72
50 | C6A U7A C9A U10A G12C G13U | 0.355
51 | C6A U7A C9A U10A G38C A39U | 0.0576
52 | C6A U7A C9A U10A G38C A39G | 0.734
53 | C6A U7A C9A U10A G38C A39C | 0.874
54 | C6A U7A C9G | 0.28
55 | C6A U7A C9U | 0.615
56 | C6A U7A C9A U10A U27C G28C | 1.36
57 | C6A U7A C9A U10A U27C G28U | 0.4
58 | C6A U7A C9A U10A U27C G28A | 0.886
59 | C6A U7A C9A U10A C44G | 1.03
60 | C6A U7A C9A U10A C44U | 0.122
61 | C6A U7A C9A U10A C44A | 1.49
62 | C6A U7A C9A U10A C16G U17A | 0.533
63 | C6A U7A C9A U10A C16G U17G | 0.02
64 | C6A U7A C9A U10A C16G U17C | 0.22
65 | C6A U7A C9A U10A C44A A45C | 1.9
66 | C6A U7A C9A U10A C44A A45U | 1.71
67 | C6A U7A C9A U10A C44A A45G | 1.09
68 | C6A U7A C9A U10A G11A | 1.96
69 | C6A U7A C9A U10A G11U | 2.89
70 | C6A U7A C9A U10A G11C | 3.21
71 | C6A U7A C9A U10A U27G G28C | 0.369
72 | C6A U7A C9A U10A U27G G28A | 0.869

Row | Variant | exon inclusion enrichment index
73 | C6A U7A C9A U10A U27G G28U | 0.003
74 | C6A U7A C9A U10A C18G C19A | 0.924
75 | C6A U7A C9A U10A C18G C19U | 0.076
76 | C6A U7A C9A U10A C18G C19G | 0.718
77 | C6A U7A C9A U10A G42A G43A | 2.97
78 | C6A U7A C9A U10A G42A G43U | 2.73
79 | C6A U7A C9A U10A G42A G43C | 3.53
80 | C6A U7A C9A U10A U32G | 0.041
81 | C6A U7A C9A U10A U32A | 0.442
82 | C6A U7A C9A U10A U32C | 1.37
83 | C6A U7A C9A U10A G38A A39C | 0.579
84 | C6A U7A C9A U10A G38A A39U | 0.0204
85 | C6A U7A C9A U10A G38A A39G | 0.862
86 | C6A U7A C9A U10A G13U | 0.142
87 | C6A U7A C9A U10A G13A | 1.97
88 | C6A U7A C9A U10A G13C | 1.04
89 | C6A U7A C9A U10A G43U C44A | 0.0263
90 | C6A U7A C9A U10A G43U C44U | 0.125
91 | C6A U7A C9A U10A G43U C44G | 0.238
92 | C6A U7A C9A U10A C22A A23U | 0.354
93 | C6A U7A C9A U10A C22A A23C | 1.39
94 | C6A U7A C9A U10A C22A A23G | 0.734
95 | C6A U7A C9A U10A G12A G13C | 1.94
96 | C6A U7A C9A U10A G12A G13U | 0.801

Row | Variant | exon inclusion enrichment index
97 | C6A U7A C9A U10A G12A G13A | 1.6
98 | C6A U7A U10G | 0.84
99 | C6A U7A U10A | 0.234
100 | C6A U7A U10C | 2.53
101 | C6A U7A C9A U10A A47G G48U | 0.0862
102 | C6A U7A C9A U10A A47G G48C | 0.251
103 | C6A U7A C9A U10A A47G G48A | 0.364
104 | C6A U7A C9A U10A G42C G43A | 1.78
105 | C6A U7A C9A U10A G42C G43U | 1.96
106 | C6A U7A C9A U10A G42C G43C | 1.88
107 | C6A U7A C9A U10A G33U G34U | 0.0929
108 | C6A U7A C9A U10A G33U G34A | 0.0617
109 | C6A U7A C9A U10A G33U G34C | 0.221
110 | C6A U7A C9A U10A U32G G33U | 0.178
111 | C6A U7A C9A U10A U32G G33A | 0.11
112 | C6A U7A C9A U10A U32G G33C | 0.75
113 | C6A U7A C9A U10A G26A U27C | 2.37
114 | C6A U7A C9A U10A G26A U27G | 1.32
115 | C6A U7A C9A U10A G26A U27A | 0.813
116 | C6A U7A C9A U10A G26C U27G | 2.09
117 | C6A U7A C9A U10A G26C U27A | 0.842
118 | C6A U7A C9A U10A G26C U27C | 2.32
119 | C6A U7A C9A U10A C19A A20G | 0.0532
120 | C6A U7A C9A U10A C19A A20C | 0.41

Row | Variant | exon inclusion enrichment index
121 | C6A U7A C9A U10A C19A A20U | 0.195
122 | C6A U7A C9A U10A G46U A47C | 1.79
123 | C6A U7A C9A U10A G46U A47G | 0.587
124 | C6A U7A C9A U10A G46U A47U | 1.03
125 | C6A U7A C9A U10A G21C C22G | 1.63
126 | C6A U7A C9A U10A G21C C22A | 0.729
127 | C6A U7A C9A U10A G21C C22U | 0.813
128 | C6A U7A C9A U10A G28A A29G | 0.227
129 | C6A U7A C9A U10A G28A A29C | 0.433
130 | C6A U7A C9A U10A G28A A29U | 0.156
131 | C6A U7A C9A U10A G12U G13A | 0.633
132 | C6A U7A C9A U10A G12U G13C | 1.06
133 | C6A U7A C9A U10A G12U G13U | 0.144
134 | C6A U7A C9A U10A G41C G42C | 2.14
135 | C6A U7A C9A U10A G41C G42U | 2.17
136 | C6A U7A C9A U10A G41C G42A | 1
137 | C6A U7A C9A U10A C24A A25G | 0.796
138 | C6A U7A C9A U10A C24A A25C | 2.22
139 | C6A U7A C9A U10A C24A A25U | 0.754
140 | C6A U7A C9A U10A C44G A45G | 0.124
141 | C6A U7A C9A U10A C44G A45C | 1.44
142 | C6A U7A C9A U10A C44G A45U | 0.598
143 | C6A U7A G8U U10A | 0.0805
144 | C6A U7A C9A U10A G15C C16A | 0.525

Row | Variant | exon inclusion enrichment index
145 | C6A U7A C9A U10A G15C C16U | 0.63
146 | C6A U7A C9A U10A G15C C16G | 0.812
147 | C6A U7A C9A U10A U32C G33U | 0.476
148 | C6A U7A C9A U10A U32C G33C | 1.09
149 | C6A U7A C9A U10A U32C G33A | 0.27
150 | C6A U7A C9A U10C G11U | 3.37
151 | C6A U7A C9A U10C G11A | 1.91
152 | C6A U7A C9A U10C G11C | 4.28
153 | C6A U7A C9A U10A C18G | 0.561
154 | C6A U7A C9A U10A C18A | 0.411
155 | C6A U7A C9A U10A C18U | 0.387
156 | C6A U7A C9A U10A G33A G34U | 0.0565
157 | C6A U7A C9A U10A G33A G34A | 0.0545
158 | C6A U7A C9A U10A G33A G34C | 0.0943
159 | C6A U7A C9A U10A G28U A29G | 0.627
160 | C6A U7A C9A U10A G28U A29U | 0.122
161 | C6A U7A C9A U10A G28U A29C | 0.539
162 | C6A U7A C9A U10A G38U | 0.223
163 | C6A U7A C9A U10A G38A | 0.314
164 | C6A U7A C9A U10A G38C | 0.524
165 | C6A U7A C9A U10A G21A | 0.506
166 | C6A U7A C9A U10A G21U | 0.507
167 | C6A U7A C9A U10A G21C | 0.86
